Key:
[1] = molecular target: T1, EphA2-Fc (extracellular domain of human EphA2 linked to human IgG1 constant region) (human, UniProt P29317 24-537); test: competitive ELISA on EphA2-Fc; competitor: labeled EA2; x axis is the ratio of unlabeled to labeled antibody
T1 construct: extracellular domain; Used as immunogen, ELISA antigen and BIACORE ligand; not shown: human IgG1 constant region
Description: Supernatants from bulk culture hybridomas were screened for immunoreactivity against EphA2 (Table 6, column 4) using standard molecular biological techniques (e.g., ELISA immunoassay). Supernatants were further screened for the ability to inhibit an EphA2 monoclonal antibody (EA2; ATCC deposit no. PTA-4380; see co-pending U.S. patent application Ser. No. 10/436,783, entitled “EphA2 Agonistic Monoclonal Antibodies and Methods of Use Thereof” filed May 12, 2003) from binding to EphA2. […] Both antibodies could decrease the amount of labeled EA2 binding to EphA2-Fc with increasing concentrations of unlabeled antibody added. Additionally, many of the other antibodies could inhibit EA2 binding to EphA2 as well (Table 6, column 3).

[2] = molecular target: T2, EphA2 on cells (MDA-MB-231, MCF-10A, MCF-7 transfected with human EphA2) (human, UniProt P29317 24-976); test: immunofluorescence, 10 µg/ml at 4 C, MDA-MB-231 and MCF-10A cells
T2 construct: whole, on cells; MDA-MB-231 and MCF-10A carry endogenous EphA2 and no species is stated for them
Procedure: The epitopes of EphA2 antibodies were characterized. […] EA2 preferentially binds EphA2 on transformed cells (FIG. 16D). […] Treatment of non-transformed MCF-10A cells with 4 mM EGTA for 20 min. dissociated the cells. EA2 bound EphA2 on the EGTA dissociated cells but not the untreated cells (FIGS. 17A-17B).

[3] = molecular target: T1, EphA2-Fc (extracellular domain of human …); test: BIACORE, EphA2-Fc immobilized on a CM5 chip, double-referenced; undiluted hybridoma supernatant
Procedure: EphA2-Fc was immobilize to a surface on a CM5 sensorchip using a standard amine (70 μl of a 1:1 mix of NHS/EDC) coupling chemistry. Briefly, a 400 nM solution of EphA2-Fc in 10 mM NaOAc, pH4, was then injected over the activated surface to a density of 1000-1100 RU's. Unused reactive esters were subsequently “capped” with a 70 μinjection of 1M Et-NH2. Similarly, an activated and “capped” control surface was prepared on the same sensor chip without protein to serve as a reference surface.
A 250 μl injection of each of the EphA2 hybridoma supernatants was made over both the EphA2-Fc and control surfaces, and the binding responses were recorded. These supernatants were used undiluted. Following each injection, at least 10 min. of dissociation phase data was collected. Purified EphA2 monoclonal antibody EA2 was prepared to serve as a positive control (at 1 μg, 5 μg and 25 μg per 250 μl of growth medium). […] Control injections of growth medium across these surfaces were also made. Following each binding cycle, the EphA2-Fc surface was regenerated with a single 1 min. pulse (injection) of 1M NaCl-50 mM NaOH.

T1 sequence (P29317 24-537): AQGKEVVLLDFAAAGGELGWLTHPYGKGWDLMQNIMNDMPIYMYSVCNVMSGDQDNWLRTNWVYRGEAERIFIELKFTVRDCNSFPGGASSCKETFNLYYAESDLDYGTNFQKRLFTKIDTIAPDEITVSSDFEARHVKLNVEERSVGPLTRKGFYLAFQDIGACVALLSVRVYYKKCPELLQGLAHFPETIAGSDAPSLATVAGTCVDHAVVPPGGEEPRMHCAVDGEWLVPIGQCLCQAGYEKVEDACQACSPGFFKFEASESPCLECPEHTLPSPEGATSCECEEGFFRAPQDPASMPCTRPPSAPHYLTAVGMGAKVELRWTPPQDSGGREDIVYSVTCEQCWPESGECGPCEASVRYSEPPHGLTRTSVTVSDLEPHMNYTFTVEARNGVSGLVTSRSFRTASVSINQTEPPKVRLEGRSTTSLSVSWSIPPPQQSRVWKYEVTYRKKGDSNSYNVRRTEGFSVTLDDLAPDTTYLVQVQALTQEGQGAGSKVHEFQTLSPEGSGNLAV
T2 sequence (P29317 24-976): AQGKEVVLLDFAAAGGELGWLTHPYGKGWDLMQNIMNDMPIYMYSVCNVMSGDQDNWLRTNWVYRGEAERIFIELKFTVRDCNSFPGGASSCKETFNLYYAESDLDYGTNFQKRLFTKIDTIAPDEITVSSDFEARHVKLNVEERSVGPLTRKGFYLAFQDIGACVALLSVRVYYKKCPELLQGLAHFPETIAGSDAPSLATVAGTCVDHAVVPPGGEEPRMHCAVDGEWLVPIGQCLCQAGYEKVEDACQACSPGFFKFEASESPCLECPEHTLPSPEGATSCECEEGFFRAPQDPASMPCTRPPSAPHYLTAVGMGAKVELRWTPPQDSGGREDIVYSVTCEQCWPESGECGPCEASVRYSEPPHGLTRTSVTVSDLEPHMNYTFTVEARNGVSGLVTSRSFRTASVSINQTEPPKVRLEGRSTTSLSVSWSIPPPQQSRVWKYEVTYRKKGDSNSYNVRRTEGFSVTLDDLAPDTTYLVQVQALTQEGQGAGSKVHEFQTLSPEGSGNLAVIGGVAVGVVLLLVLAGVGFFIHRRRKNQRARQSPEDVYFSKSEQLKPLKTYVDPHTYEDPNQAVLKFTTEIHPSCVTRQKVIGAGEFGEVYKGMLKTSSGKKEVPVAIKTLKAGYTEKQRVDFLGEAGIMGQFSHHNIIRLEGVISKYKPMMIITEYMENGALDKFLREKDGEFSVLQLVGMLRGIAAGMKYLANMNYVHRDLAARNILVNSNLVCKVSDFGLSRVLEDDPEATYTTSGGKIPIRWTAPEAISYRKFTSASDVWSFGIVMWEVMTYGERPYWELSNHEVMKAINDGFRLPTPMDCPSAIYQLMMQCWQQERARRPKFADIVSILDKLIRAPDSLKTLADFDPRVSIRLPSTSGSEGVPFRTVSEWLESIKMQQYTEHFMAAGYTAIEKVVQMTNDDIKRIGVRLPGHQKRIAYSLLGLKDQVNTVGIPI

B1: Eph099B-208.261 (ATCC PTA-4573) (antibody, V domains shown)
VH: QVQLQQPGAELVKPGASVKLSCKASGYTFTSYWMHWVKQRPGQGLEWIGMIHPNSGSTNYNEKFKSKATLTVDKSSSTAYMRLSSLTSEDSAVYYCARGGNMVGGGYWGQGTTLTVSS
VL: QIVLTQSPALMSASPGEKVTMTCSASSSVSYMYWYQQKPRSSPKPWIYLTTNLASGVPARFSGSGSGTSYSLTISSMEAEDAATYYCQQWSSNPFTFGSGTKLEIR
notes: Mouse hybridoma antibody (SJL mice)
binding result [1]: binds

B2: Eph099B-233.152 (ATCC PTA-5194) (antibody, V domains shown)
VH: EVKLVESGGGLVQPGGSLSLSCAASGFTFTDYSMNWVRQPPGKALEWLGFIRNKANDYTTEYSASVKGRFTISRDNSQSILYLQMNALRAEDSATYYCVRYPRYHAMDSWGQGTSVTVSS
VL: DIVLTQSPATLSVTPGDSVNLSCRASQSISNNLHWYQQKSHESPRLLIKYVFQSISGIPSRFSGSGSGTDFTLSINSVETEDFGMYFCQQSNSWPLTFGAGTKLELK
notes: Mouse hybridoma antibody (SJL mice); detected with anti-mouse IgG
binding result [2]: binds | binding result [3]: binds
